Legend:
FcgRI = FcgRI (UniProt P12314); assay: SPR
[1] = target: human CD3 on T cells (Jurkat cells; human peripheral blood CD4+ and CD8+ T-cells) (human) (UniProt P07766); assay: flow cytometry on Jurkat cells

FcgRI, sequence (P12314 16-288): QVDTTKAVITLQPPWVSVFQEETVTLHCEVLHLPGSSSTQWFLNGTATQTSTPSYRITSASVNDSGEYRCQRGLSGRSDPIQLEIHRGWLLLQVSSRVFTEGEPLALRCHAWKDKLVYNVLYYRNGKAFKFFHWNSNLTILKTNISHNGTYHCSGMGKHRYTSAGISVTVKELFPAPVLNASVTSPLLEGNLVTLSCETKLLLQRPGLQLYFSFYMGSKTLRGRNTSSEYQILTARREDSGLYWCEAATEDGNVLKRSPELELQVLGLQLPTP

| Kd (FcgRI) [nM] | affinity (FACS) [1] [nM] | Substance |
| --- | --- | --- |
| 8.78 | – | KLH-hIgG4 |
| – | 0.27 | OKT3-hIgG1 (antibody) |
